The values that follow come from patent US20190025332A1 (Novo Nordisk, published 2019).

Experiment [1] concerns the target T1, hRET(ECR)-hIgG1.1_Fc (human).
T1 construct: also called hRET(ECR)-Fc; hRet(ECR)-Fc
The experiment in a line: SPR; analyte 333 nM over immobilised hRet(ECR)-Fc. The protocol: (§1) hRet and complex of hGFRAL and MIC-1 interactions were assessed by SPR-based binding assay. A Biacore® 4000 (GE Healthcare, Piscataway, N.J., USA) instrument was used. The assays were performed at 25° C. at flow rates of 30 μL/minute in 1× HBS-P running buffer (BR-1006-71, GE Healthcare, Piscataway, N.J., USA). hRet(ECR)-Fc was immobilized through Fc as ligand on the chip. VISTA-Fc was immobilized as negative control ligand. The complex of MIC-1 and hGFRAL was prepared by pre-incubating wtMIC-1 with hGFRAL(ECR)-His. wtMIC-1, hGFRAL(ECR)-His, complex of wtMIC-1 and Ctrl-His, and complex of wtMIC-1 and hGFRAL(ECR)-His at various concentration were run as flow-through analyte.
(§2) Thus, it can be concluded that that hRet binds to hGFRAL in the presence of MIC-1; and Ret, MIC-1 and GFRAL forms a ternary complex.

Experiment [2] addresses T1, hRET(ECR)-hIgG1.1_Fc. The experiment in a line: SPR; analyte 1000 nM over immobilised hRet(ECR)-Fc. How it is done: as §1, §2
Experiment [3] deals with T2, VISTA-Fc.
T2 construct: Negative control ligand immobilised on the chip; also called Ctrl-Fc
Briefly: SPR; analyte 333 nM over immobilised VISTA-Fc (Ctrl-Fc). The protocol:
as §1, §2
Background: Surface plasmon resonance follows binding to a sensor surface in real time, without labels.

Experiment [4] deals with T1, hRET(ECR)-hIgG1.1_Fc. Briefly: SPR; analyte 37 nM over immobilised hRet(ECR)-Fc. The protocol: as §1, §2
Experiment [5] deals with T2, VISTA-Fc. Briefly: SPR; analyte 0 nM over immobilised VISTA-Fc (Ctrl-Fc). The protocol:
as §1, §2

Experiment [6] concerns the target T2, VISTA-Fc. Briefly: SPR; analyte 37 nM over immobilised VISTA-Fc (Ctrl-Fc). The protocol:
as §1, §2

Experiment [7] addresses T2, VISTA-Fc. Briefly: SPR; analyte 1000 nM over immobilised VISTA-Fc (Ctrl-Fc). How it is done: as §1, §2
Experiment [8] has as its target T1, hRET(ECR)-hIgG1.1_Fc. Briefly: SPR; analyte 111 nM over immobilised hRet(ECR)-Fc. The protocol:
as §1, §2

For experiment [9], the target named is T1, hRET(ECR)-hIgG1.1_Fc. Briefly: SPR; analyte 12 nM over immobilised hRet(ECR)-Fc. How it is done: as §1, §2
Experiment [10] has as its target T1, hRET(ECR)-hIgG1.1_Fc. The experiment in a line: SPR; analyte 0 nM over immobilised hRet(ECR)-Fc. The protocol: as §1, §2
Experiment [11] addresses T2, VISTA-Fc. The experiment in a line: SPR; analyte 111 nM over immobilised VISTA-Fc (Ctrl-Fc). How it is done:
as §1, §2

Experiment [12] concerns the target T2, VISTA-Fc. Briefly: SPR; analyte 12 nM over immobilised VISTA-Fc (Ctrl-Fc). The protocol:
as §1

Experiment [13] deals with T3, full length hGFRAL and full length hRET51 co-expressed on cells (human, UniProt Q6UXV0 19-394; P07949 29-1114).
T3 construct: Two receptors on the same cells (PC12, HEK293 or BHK21); written as one target since the read-outs are of cells that carry both; also called hGFRAL/hRET51 co-transfected; hGFRAL(FL) and hRET51(FL)
T3 sequence (P07949 29-1114, one chain of several): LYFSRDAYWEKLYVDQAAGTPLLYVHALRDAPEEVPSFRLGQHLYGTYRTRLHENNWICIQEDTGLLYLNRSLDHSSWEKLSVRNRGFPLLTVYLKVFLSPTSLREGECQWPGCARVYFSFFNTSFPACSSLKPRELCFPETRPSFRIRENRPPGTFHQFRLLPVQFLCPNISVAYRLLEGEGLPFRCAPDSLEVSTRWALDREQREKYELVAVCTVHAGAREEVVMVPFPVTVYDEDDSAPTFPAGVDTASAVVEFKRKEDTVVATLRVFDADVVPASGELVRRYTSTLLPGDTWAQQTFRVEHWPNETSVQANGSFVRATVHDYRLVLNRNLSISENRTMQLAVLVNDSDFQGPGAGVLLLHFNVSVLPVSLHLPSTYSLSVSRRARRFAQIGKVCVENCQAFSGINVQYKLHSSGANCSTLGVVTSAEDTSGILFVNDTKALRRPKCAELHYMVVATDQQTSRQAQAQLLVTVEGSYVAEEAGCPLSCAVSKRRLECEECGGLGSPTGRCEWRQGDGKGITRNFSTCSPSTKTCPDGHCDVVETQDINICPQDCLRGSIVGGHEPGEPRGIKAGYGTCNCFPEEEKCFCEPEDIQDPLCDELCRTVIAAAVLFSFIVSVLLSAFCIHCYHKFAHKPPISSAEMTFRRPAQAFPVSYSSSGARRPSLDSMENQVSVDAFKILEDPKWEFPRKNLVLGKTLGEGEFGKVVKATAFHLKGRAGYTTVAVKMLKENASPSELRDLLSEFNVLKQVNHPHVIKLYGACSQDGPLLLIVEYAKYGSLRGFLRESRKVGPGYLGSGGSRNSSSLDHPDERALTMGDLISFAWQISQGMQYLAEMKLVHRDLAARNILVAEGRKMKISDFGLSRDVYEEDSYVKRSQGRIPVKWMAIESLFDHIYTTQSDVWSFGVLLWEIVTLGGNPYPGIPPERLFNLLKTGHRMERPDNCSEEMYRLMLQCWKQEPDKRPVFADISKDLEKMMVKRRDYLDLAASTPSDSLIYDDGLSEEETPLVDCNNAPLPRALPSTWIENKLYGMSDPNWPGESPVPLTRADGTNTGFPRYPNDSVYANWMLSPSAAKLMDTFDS
Briefly: binding to BHK21-hGFRAL-IRES-hRET stable cells, median fluorescence intensity.

Experiment [14] deals with T3, full length hGFRAL and full length …. Briefly: cell-based or functional assay.
Experiment [15] concerns the target full length hGFRAL and full length hRET43 co-expressed on HEK293 cells (human, UniProt Q6UXV0 19-394; P07949 29-1062). The experiment in a line: cell-based or functional assay.
Experiment [16] concerns the target T3, full length hGFRAL and full length …. Briefly: cell-based or functional assay. This is another data set of the same source.
The target of experiment [17] is full length hGFRAL and full length hRET9 co-expressed on HEK293 cells (human, UniProt Q6UXV0 19-394; P07949 29-1063). Briefly: cell-based or functional assay.
Chain of full length hGFRAL and full length hRET9 co-expressed on HEK293 cells (P07949 other isoform, or with tags, fused parts or gaps limits assumed): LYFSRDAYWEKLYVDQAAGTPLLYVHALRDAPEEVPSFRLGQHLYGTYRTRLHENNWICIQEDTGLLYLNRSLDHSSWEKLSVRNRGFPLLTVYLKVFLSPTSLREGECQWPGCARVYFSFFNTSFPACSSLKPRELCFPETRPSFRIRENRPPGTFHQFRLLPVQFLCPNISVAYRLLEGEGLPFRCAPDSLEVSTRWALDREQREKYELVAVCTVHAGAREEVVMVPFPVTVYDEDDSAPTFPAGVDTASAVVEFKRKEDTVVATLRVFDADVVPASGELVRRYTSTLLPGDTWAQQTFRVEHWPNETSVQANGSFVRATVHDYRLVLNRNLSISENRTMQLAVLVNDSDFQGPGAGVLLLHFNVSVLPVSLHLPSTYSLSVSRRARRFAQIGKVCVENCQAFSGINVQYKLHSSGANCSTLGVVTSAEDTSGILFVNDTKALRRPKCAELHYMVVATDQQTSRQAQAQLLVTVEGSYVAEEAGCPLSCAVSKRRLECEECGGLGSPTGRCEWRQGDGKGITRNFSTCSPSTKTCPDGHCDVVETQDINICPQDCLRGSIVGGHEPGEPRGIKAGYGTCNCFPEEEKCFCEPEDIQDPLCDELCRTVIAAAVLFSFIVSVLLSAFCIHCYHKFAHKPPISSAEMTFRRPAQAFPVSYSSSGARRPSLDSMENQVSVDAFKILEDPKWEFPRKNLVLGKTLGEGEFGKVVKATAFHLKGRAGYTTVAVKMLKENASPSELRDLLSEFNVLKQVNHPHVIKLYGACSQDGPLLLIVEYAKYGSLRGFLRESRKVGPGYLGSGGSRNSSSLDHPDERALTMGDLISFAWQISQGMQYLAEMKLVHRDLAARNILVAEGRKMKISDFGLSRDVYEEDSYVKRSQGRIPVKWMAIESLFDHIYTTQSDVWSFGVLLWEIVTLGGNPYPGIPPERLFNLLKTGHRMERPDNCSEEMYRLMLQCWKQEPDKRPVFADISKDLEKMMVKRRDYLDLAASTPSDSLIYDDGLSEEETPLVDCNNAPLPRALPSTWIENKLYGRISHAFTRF

T1 sequence (chain, as listed by the source limits assumed): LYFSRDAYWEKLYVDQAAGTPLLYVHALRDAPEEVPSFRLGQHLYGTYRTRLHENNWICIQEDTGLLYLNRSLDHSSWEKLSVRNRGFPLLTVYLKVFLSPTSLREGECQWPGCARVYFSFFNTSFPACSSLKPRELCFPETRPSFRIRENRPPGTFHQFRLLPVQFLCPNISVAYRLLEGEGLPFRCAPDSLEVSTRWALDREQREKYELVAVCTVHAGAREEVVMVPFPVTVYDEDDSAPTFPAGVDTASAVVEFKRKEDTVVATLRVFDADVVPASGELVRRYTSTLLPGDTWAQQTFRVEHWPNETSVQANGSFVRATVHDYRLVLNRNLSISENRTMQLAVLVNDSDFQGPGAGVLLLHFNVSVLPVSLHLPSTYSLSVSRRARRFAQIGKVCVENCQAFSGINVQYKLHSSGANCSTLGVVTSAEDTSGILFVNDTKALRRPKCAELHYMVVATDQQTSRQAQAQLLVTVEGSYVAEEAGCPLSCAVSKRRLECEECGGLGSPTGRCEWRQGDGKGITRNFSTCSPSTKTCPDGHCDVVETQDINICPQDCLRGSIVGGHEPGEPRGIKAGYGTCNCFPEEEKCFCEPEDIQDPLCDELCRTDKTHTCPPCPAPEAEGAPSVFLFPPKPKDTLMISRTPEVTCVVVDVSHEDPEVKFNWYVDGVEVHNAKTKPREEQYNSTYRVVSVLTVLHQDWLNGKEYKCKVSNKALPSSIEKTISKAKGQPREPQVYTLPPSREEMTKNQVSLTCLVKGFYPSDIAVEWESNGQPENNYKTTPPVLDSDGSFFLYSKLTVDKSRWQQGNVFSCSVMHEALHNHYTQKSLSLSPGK
Chain of full length hGFRAL and full length hRET43 co-expressed on HEK293 cells (P07949 other isoform, or with tags, fused parts or gaps limits assumed): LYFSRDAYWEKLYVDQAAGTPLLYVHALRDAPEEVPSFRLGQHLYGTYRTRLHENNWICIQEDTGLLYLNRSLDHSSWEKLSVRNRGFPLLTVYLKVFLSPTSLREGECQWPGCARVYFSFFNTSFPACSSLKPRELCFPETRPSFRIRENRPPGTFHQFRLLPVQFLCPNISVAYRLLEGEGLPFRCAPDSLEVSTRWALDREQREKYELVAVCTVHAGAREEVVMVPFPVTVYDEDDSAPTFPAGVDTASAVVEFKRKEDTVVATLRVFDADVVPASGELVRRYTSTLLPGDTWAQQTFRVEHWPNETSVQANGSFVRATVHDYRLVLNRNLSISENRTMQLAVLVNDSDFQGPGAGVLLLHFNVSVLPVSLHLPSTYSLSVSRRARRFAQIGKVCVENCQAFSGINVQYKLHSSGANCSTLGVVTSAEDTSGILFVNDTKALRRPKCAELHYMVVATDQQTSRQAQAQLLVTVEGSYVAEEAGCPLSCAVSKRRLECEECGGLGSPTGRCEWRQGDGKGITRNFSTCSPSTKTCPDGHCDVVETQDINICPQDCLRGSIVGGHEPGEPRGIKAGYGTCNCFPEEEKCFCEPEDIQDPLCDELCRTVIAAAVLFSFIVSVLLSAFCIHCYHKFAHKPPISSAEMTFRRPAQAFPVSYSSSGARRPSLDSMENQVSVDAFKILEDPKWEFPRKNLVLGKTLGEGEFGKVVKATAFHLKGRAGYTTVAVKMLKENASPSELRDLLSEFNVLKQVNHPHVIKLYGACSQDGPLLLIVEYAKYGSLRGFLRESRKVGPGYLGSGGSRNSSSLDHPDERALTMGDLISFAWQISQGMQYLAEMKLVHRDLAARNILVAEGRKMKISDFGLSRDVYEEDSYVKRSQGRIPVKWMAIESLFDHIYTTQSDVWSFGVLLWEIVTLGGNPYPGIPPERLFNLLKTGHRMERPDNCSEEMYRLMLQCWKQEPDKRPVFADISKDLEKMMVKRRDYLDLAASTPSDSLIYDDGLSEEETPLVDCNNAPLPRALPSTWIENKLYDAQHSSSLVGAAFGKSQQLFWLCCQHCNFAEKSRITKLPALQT

B1: hGFRAL(ECR)-His (receptor, not shown: small tags and cut ends)
chain: SQTNNCTYLREQCLRDANGCKHAWRVMEDACNDSDPGDPCKMRNSSYCNLSIQYLVESNFQFKECLCTDDFYCTVNKLLGKKCINKSDNVKEDKFKWNLTTRSHHGFKGMWSCLEVAEACVGDVVCNAQLASYLKACSANGNPCDLKQCQAAIRFFYQNIPFNIAQMLAFCDCAQSDIPCQQSKEALHSKTCAVNMVPPPTCLSVIRSCQNDELCRRHYRTFQSKCWQRVTRKCHEDENCISTLSKQDLTCSGSDDCKAAYIDILGTVLQVQCTCRTITQSEESLCKIFQHMLHRKSCFNYPTLSNVKGMALYTRKHANKITLTGFHSPFNGE
Turning to B1, the “Response (RU)” value with hRET(ECR)-hIgG1.1_Fc [1] is -0.497 RU; with hRET(ECR)-hIgG1.1_Fc [2], -1.11 RU; in the experiment with VISTA-Fc [3], -3.48 RU; in the experiment with hRET(ECR)-hIgG1.1_Fc [4], -0.105 RU; with VISTA-Fc [5] it was 0 RU; with VISTA-Fc [6], -2.04 RU. In addition, the “Response (RU)” value is -3.85 RU in the experiment with VISTA-Fc [7]; 0.208 RU in the experiment with hRET(ECR)-hIgG1.1_Fc [8]; -0.0397 RU in the experiment with hRET(ECR)-hIgG1.1_Fc [9]; 0 RU with hRET(ECR)-hIgG1.1_Fc [10]; -2.94 RU with VISTA-Fc [11]; -2.34 RU with VISTA-Fc [12].

B2: wild type human MIC-1 (ligand)
chain: ARNGDHCPLGPGRCCRLHTVRASLEDLGWADWVLSPREVQVTMCIGACPSQFRAANMHAQIKTSLHRLKPDTVPAPCCVPASYNPMVLIQKTDTGVSLQTYDDLLAKDCHCI
notes: also called wtMIC-1; hMIC-1
Usually EC50 stands for the concentration needed to bring the measured effect to its halfway point. As to B2, the “Response (RU)” value with hRET(ECR)-hIgG1.1_Fc [1] is 0.88 RU; with hRET(ECR)-hIgG1.1_Fc [2], 0.527 RU; in the experiment with VISTA-Fc [3], 0.226 RU; with hRET(ECR)-hIgG1.1_Fc [4] it was 0.467 RU; with VISTA-Fc [5], 0 RU; in the experiment with VISTA-Fc [6], -0.0179 RU. In addition, the “Response (RU)” value with VISTA-Fc [7] is -0.515 RU; with hRET(ECR)-hIgG1.1_Fc [8], 0.484 RU; with hRET(ECR)-hIgG1.1_Fc [9] it was 0.184 RU; with hRET(ECR)-hIgG1.1_Fc [10], 0 RU; in the experiment with VISTA-Fc [11], 0.362 RU; in the experiment with VISTA-Fc [12], -0.245 RU. Moreover, in [13], a half-maximal effect (EC50) was put at 1.3 nM. Also, the “EC50 of ERK1/2 phosphorylation; hGFRAL and hRET51 co-transfected PC12 cells” value in [14] is about 0.2 nM. In addition, the “pERK1/2 (Evision Unit); HEK293 cells; wtMIC-1 0.001000 nM” value in experiment [15], in experiment [16] and in experiment [17] was 1 Evision Unit throughout. Further, the results for the “pERK1/2 (Evision Unit); HEK293 cells; wtMIC-1 0.030483 nM” value in experiment [15], in experiment [16] and in experiment [17] were 1.03 Evision Unit, 1.02 Evision Unit and 1.07 Evision Unit, respectively. Also, the results for the “pERK1/2 (Evision Unit); HEK293 cells; wtMIC-1 0.091449 nM” value in experiment [15], in experiment [16] and in experiment [17] were 1.01 Evision Unit, 0.969 Evision Unit and 0.988 Evision Unit, respectively. For the same molecule, the “pERK1/2 (Evision Unit); HEK293 cells; wtMIC-1 0.274348 nM” value in experiment [15] amounted to 1.05 Evision Unit; in experiment [16] it was 1.13 Evision Unit; in [17], 1.07 Evision Unit. For the same molecule, the “pERK1/2 (Evision Unit); HEK293 cells; wtMIC-1 0.823045 nM” value in experiment [15] turned out to be 1.09 Evision Unit; in experiment [16], 1.4 Evision Unit; in [17], 1.17 Evision Unit. Further, the “pERK1/2 (Evision Unit); HEK293 cells; wtMIC-1 2.469136 nM” value in [15] worked out at 1.07 Evision Unit; in experiment [16] it was 1.69 Evision Unit; in [17], 1.24 Evision Unit. Further, the “pERK1/2 (Evision Unit); HEK293 cells; wtMIC-1 7.407407 nM” value in experiment [15] came to 1.14 Evision Unit; in experiment [16], 1.7 Evision Unit; in experiment [17], 1.3 Evision Unit. Also, the “pERK1/2 (Evision Unit); HEK293 cells; wtMIC-1 22.222220 nM” value turned out to be 1.11 Evision Unit in [15], 1.73 Evision Unit in experiment [16] and 1.26 Evision Unit in experiment [17]. The “pERK1/2 (Evision Unit); HEK293 cells; wtMIC-1 66.666670 nM” value in experiment [15] was determined as 1.16 Evision Unit; in experiment [16] it was 1.74 Evision Unit; in [17], 1.32 Evision Unit.

B3: complex of wtMIC-1 and hGFRAL(ECR)-His (other)
chain 1: ARNGDHCPLGPGRCCRLHTVRASLEDLGWADWVLSPREVQVTMCIGACPSQFRAANMHAQIKTSLHRLKPDTVPAPCCVPASYNPMVLIQKTDTGVSLQTYDDLLAKDCHCI
chain 2: SQTNNCTYLREQCLRDANGCKHAWRVMEDACNDSDPGDPCKMRNSSYCNLSIQYLVESNFQFKECLCTDDFYCTVNKLLGKKCINKSDNVKEDKFKWNLTTRSHHGFKGMWSCLEVAEACVGDVVCNAQLASYLKACSANGNPCDLKQCQAAIRFFYQNIPFNIAQMLAFCDCAQSDIPCQQSKEALHSKTCAVNMVPPPTCLSVIRSCQNDELCRRHYRTFQSKCWQRVTRKCHEDENCISTLSKQDLTCSGSDDCKAAYIDILGTVLQVQCTCRTITQSEESLCKIFQHMLHRKSCFNYPTLSNVKGMALYTRKHANKITLTGFHSPFNGE
notes: Prepared by pre-incubating wtMIC-1 with hGFRAL(ECR)-His; also called wtMIC-1 + hGFRAL(ECR)-His; complex of MIC-1 and hGFRAL; not shown: His tag, not described
Turning to B3, the “Response (RU)” value with hRET(ECR)-hIgG1.1_Fc [1] is 8.32 RU; with hRET(ECR)-hIgG1.1_Fc [2], 10.7 RU; with VISTA-Fc [3], -1.43 RU; with hRET(ECR)-hIgG1.1_Fc [4] it was 1.97 RU; in the experiment with VISTA-Fc [5], 0 RU; with VISTA-Fc [6], -1.48 RU. The “Response (RU)” value with VISTA-Fc [7] was -1.4 RU; in the experiment with hRET(ECR)-hIgG1.1_Fc [8] it was 5.48 RU; with hRET(ECR)-hIgG1.1_Fc [9], 0.226 RU; with hRET(ECR)-hIgG1.1_Fc [10], 0 RU; with VISTA-Fc [11] it was -1.02 RU; with VISTA-Fc [12] it was -1.39 RU.
